The results in this text go back to patent publication US20150266951A1 (SNU R AND DB FOUNDATION, published 2015).

Assay [1] addresses T1, Epitope 4 of IP-10 (amino acids 61-98), recombinant segment expressed in E. coli from pET41 (human).
T1 construct: Segment cloned EcoRI/XhoI into PET41 vector and tested as lysate of the expressing E. coli in western blot; any tags from the vector are not described; not shown: vector-coded fusion part of pET41 (GST is run as the negative control)
T1 chain: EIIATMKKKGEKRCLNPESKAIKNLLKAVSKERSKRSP
Put plainly: western blot on recombinant IP-10 segments expressed in E. coli. Here is the method:
E. coli expressing each of the 4 epitopes of recombinant IP-10 was suspended in PBS buffer (137 mM NaCl, 2.7 mM KCl, 10 mM Na2HPO4, 2 mM KH2PO4) and the same volume of SDS-gel loading buffer (100 mM Tris-C1 (pH 6.8), 4% SDS, 0.2% bromophenol blue, 20% glycerol, 200 mM DTT) and heated at 100° C. for 5 min. The mixture was then centrifuged at 13,000 rpm for 10 min and the supernatant was separated on 12% SDS-PAGE, and the proteins separated on the gel were transferred to a polyvinylidenfluoride membrane. Western blot was performed using anti-IP-10 antibody and enhanced chemiluminescent reagent.
(A western blot detects proteins with antibodies after separation by electrophoresis.)

The target in assay [2] is T2, recombinant human IP-10 protein (IFN-γ-inducible protein 10) (human, UniProt P02778 22-98).
T2 construct: also called IP-10 antigen; recombinant IP-10
T2 sequence: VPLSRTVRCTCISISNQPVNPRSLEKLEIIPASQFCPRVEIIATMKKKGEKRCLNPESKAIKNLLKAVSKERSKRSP
Kind of assay: western blot on recombinant human IP-10 protein.

B1: anti-IP-10 monoclonal antibody #77 (antibody, V domains shown)
VH: QIQLVHSGPELKKPGETVKISCKASGYTFTDYSMHWVKQAPGKGLKWMGWINTETGEPTYADDFKGRFAFSLETSASTAYLQINNLKNEDTATYFCARMYDYSYYFDYWGQGTTLTVSS
VL: DIQMTQSPASLSVSVGETVTITCRASENIYSNLAWYQQKQGKSPQLLVYAATNLADGVPSRFSGSGSGTQYSLKINSLQSEDFGSYYCQHFWGTPYTFGGGTKLEIKR
notes: Mouse monoclonal antibody from a hybridoma; also called clone #77; clone #77 monoclonal antibody
B1: the binding result in assay [1] and in assay [2] was “binds” in each case.

B2: anti-IP-10 monoclonal antibody #129 (antibody, V domains shown)
VH: QVQLKQSGPGLVQPSQSLSITCTVSGFSLTSYGVHWVRQSPGKGLEWLGVIWSGGSTDYNAAFISRLSISKDNSKSQVFFKMNSLQANDTAIYYCARNWGAMDYWGQGTSVTVSS
VL: DIVMTQSPSSLSVSAGEKVTMSCKSSQSLLNSGNQKNYLAWYQQKPGQPPKLLIYGASTRESGVPDRFTGSGSGTDFTLTISSVQAEDLAVYYCQNDHSYPLTFGAGTKLELKR
notes: Mouse monoclonal antibody from a hybridoma; also called clone #129; clone #129 monoclonal antibody
With B2, the binding result in assay [1] and in assay [2] was “binds” throughout.

B3: anti-IP-10 monoclonal antibody #88 (antibody, V domains shown)
VH: EVMLVESGGGLVKPGGSLKLSCTVSGFTFSGYAMSWVRQTPEKRLEWVASITSGGSYTSYPDNMKGRLTISRDNDRNTLDLQMSSLRSEDTAMYFCTRHSPVIASWFAYWGQGTLVHC
VL: DVLMTQTPLSLPVSLGDQASISCRSSQSIVHSNGNTYLEWYLQKPGQSPKLLIYKVSNRFSGVPDRFSGSGSGTDFTLKISRVEAEDMGVYYCFQGSHVPFTFGSGTKLEIKR
notes: Mouse monoclonal antibody from a hybridoma; also called clone #88; clone #88 monoclonal antibody
B3: the binding result in assay [1] and in assay [2] was “binds” throughout.

B4: anti-IP-10 monoclonal antibody #116 (antibody, V domains shown)
VH: QVQLQQSGPELVKPGASVKISCKASGYAFSSSWMNWVKQRPGQGLEWIGRIYPGDGDTNYNGKFKGKATLTADKSSSTAYMQLSSLTSVDSAVYFCARIGNYYGSSYLYWYFDVWGAGTTVTVS
VL: DIQMTQSPSSLSASLGGKVTITCKASQDIDKYIAWYQHRPGKGPSLLIHYTSTLQPGIPSRFSGSGSGKNYSFSISNLEPEDIATYYCLQYDNLLLTFGAGTKLELKR
notes: Mouse monoclonal antibody from a hybridoma; also called clone #116; clone #116 monoclonal antibody
Take B4: the binding result in assay [1] and in assay [2] was “binds” each time.
